Test [1] concerns the target T1, LRP6 E1 (Homo sapiens, UniProt O75581).
T1 construct: construct E1-amino acids A20-D325 of LPR6; made in house; host or cells: Tni insect cells (baculovirus, secreted)
T1 sequence (O75581 20-325): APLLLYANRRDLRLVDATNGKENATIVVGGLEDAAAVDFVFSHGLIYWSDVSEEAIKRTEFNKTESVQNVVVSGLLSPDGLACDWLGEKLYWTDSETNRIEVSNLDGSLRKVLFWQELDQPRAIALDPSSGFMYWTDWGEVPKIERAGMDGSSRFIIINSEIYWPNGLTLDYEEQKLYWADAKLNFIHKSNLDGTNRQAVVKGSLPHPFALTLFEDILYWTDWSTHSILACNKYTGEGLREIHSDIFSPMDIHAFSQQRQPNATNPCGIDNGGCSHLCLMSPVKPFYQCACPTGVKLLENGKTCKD
Kind of test: Biolayer interferometry binding to LRP6 E1. On the procedure:
(§1) Binding kinetics were measured by biolayer interferometry using an Octet Red instrument (ForteBio) as previously described (11). Streptavidin (SA) biosensors were loaded with biotinylated hLRP6 in 50 mMTris, pH 8, 300 mM NaCl, 5% (v/v) glycerol, and 0.05% (w/v) Triton X-100. The loaded biosensors were washed in the same buffer before carrying out association and dissociation measurements for the indicated times. The Kd of each interaction was determined using steady state-analysis through the Octet Red software v6.3. Each reported value represents an average of three or more experiments at different concentrations, with a fitted experimental curve for which the square of the correlation coefficient (R^2) is above 0.96.
(§2) The interaction of the different Dkks and sclerostin with various domains of LRP6 was measured using a biolayer interferometry assay (11). Purified receptors contained individual β-propeller-EGF-like units (E1, E2, or E4), two β-propellers (E1E2 or E3E4), or four β-propellers (E1E4))—as follows:
(§3) Human LRP6: construct E1E4-amino acids A20-Q1253 of LPR6; construct E1E2-amino acids A20-E631 of LPR6; construct E3E4 amino acids E631-Q1253 of LPR6; construct E1-amino acids A20-D325 of LPR6; construct E2-amino acids […]-E631 of LPR6; construct E4-T933-Q1253. The individual LRP6 β-propeller E3 could not be expressed.
(In general: BLI is a label-free optical method that tracks binding on a fibre tip over time.)

Test [2] addresses T2, LRP6 E3E4 (Homo sapiens, UniProt O75581).
T2 construct: construct E3E4 amino acids E631-Q1253 of LPR6; made in house; host or cells: Tni insect cells (baculovirus, secreted)
T2 sequence (O75581 631-1253): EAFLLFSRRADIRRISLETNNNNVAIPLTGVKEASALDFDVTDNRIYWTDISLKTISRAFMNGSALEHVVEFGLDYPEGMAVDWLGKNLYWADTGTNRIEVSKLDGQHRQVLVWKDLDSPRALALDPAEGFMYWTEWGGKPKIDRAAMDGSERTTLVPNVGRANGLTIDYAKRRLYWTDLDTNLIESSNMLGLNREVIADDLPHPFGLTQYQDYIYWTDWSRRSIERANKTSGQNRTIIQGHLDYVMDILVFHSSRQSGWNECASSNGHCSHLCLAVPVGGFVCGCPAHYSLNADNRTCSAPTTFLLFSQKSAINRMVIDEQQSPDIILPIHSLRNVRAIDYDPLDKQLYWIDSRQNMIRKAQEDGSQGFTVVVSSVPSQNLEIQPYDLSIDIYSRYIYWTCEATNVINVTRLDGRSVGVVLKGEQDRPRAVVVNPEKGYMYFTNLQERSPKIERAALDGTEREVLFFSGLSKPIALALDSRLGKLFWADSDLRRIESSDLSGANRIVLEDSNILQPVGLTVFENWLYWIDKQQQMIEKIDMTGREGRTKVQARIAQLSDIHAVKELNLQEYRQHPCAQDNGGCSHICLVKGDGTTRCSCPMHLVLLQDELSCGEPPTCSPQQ
Kind of test: Biolayer interferometry binding to LRP6 E3E4. To be noted: steady state, read-out: affinity for LRP6 E3E4. On the procedure:
as §1, §2, §3

Test [3] addresses T3, LRP6 E1E2 (Homo sapiens, UniProt O75581).
T3 construct: construct E1E2-amino acids A20-E631 of LPR6; made in house; host or cells: Tni insect cells (baculovirus, secreted)
T3 sequence (O75581 20-631): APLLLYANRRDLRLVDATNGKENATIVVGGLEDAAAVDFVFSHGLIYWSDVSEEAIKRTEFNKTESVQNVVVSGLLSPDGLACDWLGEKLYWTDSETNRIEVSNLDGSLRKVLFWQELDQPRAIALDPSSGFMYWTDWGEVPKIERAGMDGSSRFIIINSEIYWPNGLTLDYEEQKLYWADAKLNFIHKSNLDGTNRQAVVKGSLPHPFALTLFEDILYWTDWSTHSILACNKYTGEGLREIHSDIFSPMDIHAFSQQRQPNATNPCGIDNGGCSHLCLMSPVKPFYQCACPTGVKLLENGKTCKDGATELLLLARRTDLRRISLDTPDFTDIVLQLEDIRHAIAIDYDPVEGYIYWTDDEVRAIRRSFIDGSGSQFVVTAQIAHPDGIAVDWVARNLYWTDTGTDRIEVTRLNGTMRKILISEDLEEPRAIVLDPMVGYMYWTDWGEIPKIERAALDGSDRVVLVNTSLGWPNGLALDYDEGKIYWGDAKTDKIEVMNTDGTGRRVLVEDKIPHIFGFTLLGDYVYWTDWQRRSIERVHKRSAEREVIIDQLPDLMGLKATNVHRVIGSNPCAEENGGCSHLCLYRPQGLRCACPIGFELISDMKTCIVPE
Kind of test: Biolayer interferometry binding to LRP6 E1E2. The following applies: steady state, read-out: affinity for LRP6 E1E2. On the procedure:
as §1, §2, §3

In test [4] the target is T4, LRP6 E2 (Homo sapiens, UniProt O75581).
T4 construct: construct E2-amino acids D235-E631 of LPR6; made in house; host or cells: Tni insect cells (baculovirus, secreted)
T4 sequence (O75581 325-631 limits assumed): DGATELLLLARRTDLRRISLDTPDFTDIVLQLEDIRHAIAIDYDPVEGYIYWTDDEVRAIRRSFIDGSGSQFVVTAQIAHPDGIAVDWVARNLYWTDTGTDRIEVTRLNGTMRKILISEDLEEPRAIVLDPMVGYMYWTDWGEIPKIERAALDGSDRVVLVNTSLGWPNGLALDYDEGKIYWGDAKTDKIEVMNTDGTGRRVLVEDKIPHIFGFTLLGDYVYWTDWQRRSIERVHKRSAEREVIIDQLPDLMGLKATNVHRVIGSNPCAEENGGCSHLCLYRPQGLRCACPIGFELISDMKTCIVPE
As to the kind of experiment: Biolayer interferometry binding to LRP6 E2. On the procedure:
as §1, §2, §3

In test [5] the test system is LRP6. As to the kind of experiment: Competition binding between Dkk1 and other Wnt pathway inhibitors (preloaded Dkk1). More on the design: species or system human. To be noted: Dkk1 100 nM preloaded, test ligand 100 nM. On the procedure: FIG. 8. Competition binding between Dkk1 and other Wnt pathway inhibitors. The indicated LRP6 construct was preloaded onto biosensor tips. Dkk1 (100 nM) (or buffer control) and the test ligand (100 nM) were loaded sequentially onto the LRP6 tips. (A) Dkk2 competition with Dkk1. (B) Sclerostin competition with Dkk1. Percent binding in the presence of Dkk1 is shown relative to buffer control.
as §1
To assess whether Dkk1, Dkk2, and sclerostin might bind to the same site on LRP6 E1, Dkk2 or sclerostin binding was measured in the presence of preloaded Dkk1 (100 nM). […]

Test [6] has as its target T5, LRP6 E4 (Homo sapiens, UniProt O75581).
T5 construct: construct E4-T933-Q1253; made in house; host or cells: Tni insect cells (baculovirus, secreted)
T5 sequence (O75581 933-1253): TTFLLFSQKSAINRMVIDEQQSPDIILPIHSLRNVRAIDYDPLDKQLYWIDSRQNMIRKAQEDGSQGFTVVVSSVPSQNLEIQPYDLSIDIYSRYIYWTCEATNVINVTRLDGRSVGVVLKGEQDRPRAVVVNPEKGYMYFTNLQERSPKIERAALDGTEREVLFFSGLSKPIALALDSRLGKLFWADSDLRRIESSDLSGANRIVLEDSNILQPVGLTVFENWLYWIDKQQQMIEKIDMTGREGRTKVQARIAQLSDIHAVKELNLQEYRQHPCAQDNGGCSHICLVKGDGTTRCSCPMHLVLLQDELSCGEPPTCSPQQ
Kind of test: Biolayer interferometry binding to LRP6 E4. On the procedure:
as §1, §2, §3

In test [7] the target is T6, human LRP6 construct E1E2 (amino acids A20-E631) (human, UniProt O75581 20-631, biotinylated for biolayer interferometry).
T6 construct: range 20-631; also called LRP6 E1E2
T6 sequence (looked up): T3 sequence (O75581 20-631)
As to the kind of experiment: competition phage ELISA. On the procedure:
Peptide affinities were also determined by competition with phage displaying a binding peptide (competition phage ELISA). Serial dilutions of test peptide were mixed with an appropriate (non-saturating) concentration of phage before exposing the mixture to target and allowing it to reach equilibrium. After washing to remove unbound material, bound phage were detected by incubation with anti-M13 antibody-horseradish peroxidase (HRP) conjugate and exposure to a suitable colorometric HRP substrate.
FIG. 7B. These peptides include the “NXI” motif described above. Affinities of the peptides for LRP6 E1E2 were determined by competition phage ELISA (41). […] To understand the detailed interactions of the peptides with LRP6, we determined high-resolution co-crystal structures of the peptides bound to the LRP6 E1 β-propeller.
A general note: ELISA stands for enzyme-linked immunosorbent assay.

Test [8] has as its target T7, human LRP6 construct E1 (amino acids A20-D325) (human, UniProt O75581 20-325).
T7 construct: range 20-325; In the Fab crystal E1 arose from E1E2 degraded beyond Arg 335; residues Ala20 to Lys324 were traced; also called LRP6 E1; E1 domain
T7 sequence (looked up): T1 sequence (O75581 20-325)
Kind of test: legend of FIG. 22. On the procedure:
as §1, with “(R²)” for “(R^2)”

Positions of bridges follow the written chain, without caps; N, C: chain ends.

B1: Dkk2: Dickkopf 2, carrier-free protein from R&D Systems (protein, UniProt Q9UBU2 34-259, looked up)
Dickkopf-related protein 2: KLNSIKSSLGGETPGQAANRSAGMYQGLAFGGSKKGKNLGQAYPCSSDKECEVGRYCHSPHQGSSACMVCRRKKKRCHRDGMCCPSTRCNNGICIPVTESILTPHIPALDGTRHRDRNHGHYSNHDLGWQNLGRPHTKMSHIKGHEGDPCLRSSDCIEGFCCARHFWTKICKPVLHQGEVCTKQRKKGSHGLEIFQRCDCAKGLSCKVWKDATYSSKARLHVCQKI
Turning to B1, the “binding to LRP6 E1 (in words)” value in test [1] is listed as “bind with high affinity”. In addition, the values for the Kd in test [2] and in test [3] were 38 nM and 53 nM, respectively. Besides, the “binding to LRP6 E2 (in words)” value in test [4] is “Partial binding”. In test [5], the “binding to LRP6 in the presence of preloaded Dkk1” value was “inhibited only slightly”. For the same molecule, in test [6], the “binding to LRP6 E4 (in words)” value was “undetectable”.
As to Ac-NSNAIKN-NH2 (also called Dkk1 peptide) [Dkk1 7-mer peptide Ac-NSNAIKN-am], the half-maximal inhibitory concentration (IC50) in test [7] is 4000 nM.
For Ac-CNSIKFCG-NH2 (disulfide 1-7 (inferred), also called Peptide B) [Ac-CNSIKFCG-am (disulfide)], the binding result in test [8] is recorded as “binds”.

As usually defined, the IC50 is the concentration that inhibits the measured activity by half.

The values above are taken from patent US20140235820A1, “METHODS AND COMPOSITIONS FOR MODULATING THE Wnt PATHWAY” (Genentech, Inc., priority 2010, published 2014).
